Positions of bridges follow the written chain, without caps; N, C: chain ends. Residues, ends and D or L forms follow the SMILES beside them. *: point of attachment. X1 = CC(CCC(C)C(=O)*)C(=O)OCC(=O)[C@@]1(O)[C@H](C)C[C@H]2[C@@H]3CCC4=CC(=O)C=C[C@]4(C)[C@@]3(F)[C@@H](O)C[C@@]21C
Tests used:
CIA rats = tested on: CIA rats
Description: Arthritis was induced in 9-week-old female Lewis rats (Envigo or Charles River Laboratories) by intradermal injection while anesthetized of 400 ug bovine type II collagen (Chondrex Inc, Redmond Wash.) in 2 adjacent 200 ul (1 mg/ml) doses on day 0. Collagen is prepared for injection by dissolving at 2 mg/ml in 0.01N glacial acetic acid in sterile water and rocking at 4° C. overnight then emulsifying in Freund's incomplete adjuvant (IFA, Sigma Aldrich). To emulsify, equal volumes of collagen solution and IFA are drawn up into separate syringes, which are joined by a 3-way stopcock. While on ice, the collagen and IFA are mixed by pressing between the two syringes rapidly for 10 minutes. Quality of the emulsification is tested after 10 minutes of mixing by dropping a small amount of mixture in water. A properly emulsified solution will remain as a discrete droplet and not disperse in the water. On day 7, rats are challenged with a second intradermal injection of 100 ug of collagen in 100 ul, 1 mg/ml, collagen in IFA solution prepared fresh. Body weight and ankle diameter measurements are recorded daily from day 7 through the end of the study. Ankle diameter was measure by a single researcher using a Fowler Digitrix 2 micrometer. Three measurements of each ankle were taken of the lateral dimension at the tarsus of lightly anesthetized rats. The reported ankle diameter measurement is the mean of the three measurements.
Arthritis was induced as described in four cohorts of 9-week-old female Lewis rats. Rats were randomly placed in treatment groups, balancing compound and dose groups across cohorts. […] Rats were dosed by tail vein injection on days 11 and 12 and euthanized on day 13 by CO2 asphyxiation. Immediately after cessation of respiratory movement, blood was collected by cardiac puncture, synovial fluid was collected from both knees, one hind limb was fixed in formalin and the alternate ankle was frozen on dry ice. Thymus, spleen, liver, and kidney weights were recorded.
CIA Response study design.
The aim of the study was to test the 4 conjugates with various linkers at two different doses in vivo in CIA rats to assess the following: ability to deliver sufficient dexamethasone to the joint to show functionality and potential therapeutic effect in the disease model.
CIA was induced in female Lewis rats (as described above, see EXAMPLE 21). Body weight and ankle joint diameters were measured on day 0 and then daily from day 7 until euthanasia. […] At euthanasia, synovial fluid was collected from both knees, one hind limb was fixed in formalin and the alternate ankle was frozen on dry ice. Thymus, spleen, liver, and kidney weights were recorded. Blood samples were submitted for CBC/Chemistry analysis, and the remaining plasma was frozen.

in vivo = assay: in vivo
From the text: Dexamethasone alone has low water solubility. […] A secondary objective was to measure free Dex levels in knee joints.
All samples were collected at euthanasia. Free Dex was extracted from plasma samples and quantified by LC/MS. […] To measure the total Dex concentration (free Dex released in vivo+Dex associated with intact peptide-drug conjugate) in plasma of rats treated with Peptide(SEQ ID NO: 105)-DMA-Dex, a separate plasma sample was subjected to forced hydrolysis followed by extraction of free Dex. Dexamethasone extraction was achieved by acetonitrile precipitation from plasma samples. The forced hydrolysis protocol involved addition of 10 U porcine esterase to the plasma and incubation for 22 h at 37° C. Total white blood cell counts, absolute lymphocyte counts, and thymus and spleen weights were measured to assess systemic markers of Dex exposure over the time-course.
In order to quantify the concentration of free Dex in knee joints, knee joints were harvested, the joint capsule was opened, and the knee joints were then shaken in ethyl acetate for 12 h at 4° C. The extract was centrifuged and the supernatant was dried under nitrogen in a 96 well plate. The samples were then reconstituted and analyzed by LC/MS using the same protocol developed for quantifying free Dex in plasma.
An indirect estimate of intact peptide-drug conjugate concentration at each time-point can be made by subtracting the free Dex concentration (from direct extraction) from the total Dex concentration (from forced hydrolysis). […] Systemic exposure to Dex was assessed by multiple parameters: total white blood cell (WBC) count; absolute lymphocyte count; thymus weight; and spleen weight (FIG. 15).

[1] = any time-point to 24 h, single IV dose 0.2 mg/kg

CC[C@H](C)[C@@H]1NC(=O)[C@@H]2CSSC[C@H](NC(=O)[C@H](CCCNC(=N)N)NC(=O)[C@@H](NC(=O)[C@H](CC(N)=O)NC(=O)[C@@H](NC(=O)[C@@H]3CCCN3C(=O)[C@@H](NC(=O)CNC(=O)[C@H](CO)NC(=O)CNC(=O)C(C)CCC(C)C(=O)OCC(=O)[C@@]3(O)[C@H](C)C[C@H]4[C@@H]5CCC6=CC(=O)C=C[C@]6(C)[C@@]5(F)[C@@H](O)C[C@@]43C)C(C)C)[C@@H](C)CC)C(C)C)C(=O)N[C@@H](CCCNC(=N)N)C(=O)NCC(=O)N[C@@H](CO)C(=O)N[C@@H](CCCNC(=N)N)C(=O)N[C@@H](CC(=O)O)C(=O)N[C@H]3CSSC[C@H](NC(=O)[C@H](CCCNC(=N)N)NC(=O)[C@H](CO)NC(=O)[C@H](CC(N)=O)NC1=O)C(=O)N[C@@H](Cc1c[nH]cn1)C(=O)N[C@H](C(=O)N[C@H](C(=O)N1CCC[C@H]1C(=O)O)[C@@H](C)O)CSSC[C@H](NC(=O)[C@@H]1CCCN1C(=O)[C@H](CC(=O)O)NC(=O)[C@H](CC(C)C)NC3=O)C(=O)N[C@@H](CCCNC(=N)N)C(=O)N[C@@H](CCCNC(=N)N)C(=O)N[C@@H](C)C(=O)NCC(=O)N[C@@H](CCSC)C(=O)N[C@@H](CCCNC(=N)N)C(=O)N[C@@H](Cc1ccccc1)C(=O)NCC(=O)N[C@@H](CCCNC(=N)N)C(=O)N2 (stereo partly shown) [Compound 27, peptide(SEQ ID NO: 105)-[dimethyladipic acid]-Dex] (X1-GSGVPINVRCRGSRDCLDPCRRAGMRFGRCINSRCHCTP-OH; disulfide 10-30, 16-35, 20-37 (inferred); C-terminus assumed)
ankle swelling over time as compared to vehicle (CIA rats; 0.2 mg/kg and 0.5 mg/kg Dex equivalents IV days 11 and 12): reduction in ankle swelling
spleen weight (CIA rats; 0.2 mg/kg and 0.5 mg/kg dose): reduction
thymus weight (CIA rats; 0.2 mg/kg and 0.5 mg/kg dose): reduction
total body weight (CIA rats; 0.2 mg/kg and 0.5 mg/kg dose): reduction
change in median ankle diameter between day 11 and day 13 as compared to vehicle (CIA rats; 0.2 mg/kg dose): statistically significant reduction in ankle diameter
difference from Dex in change in ankle diameter (CIA rats; 0.2 mg/kg dose): no statistically significant difference
mortality and tolerability (CIA rats; 1 mg/kg Dex equivalents IV, some rats): died overnight
WBC and lymphocyte cell counts as compared to DexSP (in vivo; 2 h after single IV dose 0.2 mg/kg): higher
lymphocyte counts as compared to DexSP (in vivo; 12 h after single IV dose 0.2 mg/kg): lower
Thymus weight, difference between DexSP and conjugate (in vivo; [1]): not significantly different
spleen weight, difference between DexSP and conjugate (in vivo; [1]): not significantly different
half-life (in vivo; female, Lewis, rat, in vivo, iv, 0.2 mg/kg): ~1.5 h
detectability of intact peptide-drug conjugate in plasma (in vivo; plasma, total Dex minus free Dex, single IV dose 0.2 mg/kg): not detectable after 6 h

Source: US20210252159A1, “CONJUGATES OF CARTILAGE-HOMING PEPTIDES” (priority 2018, published 2021)
